Where two headings read alike, the source gives them in different places.
How the values were obtained:
Experiment in all cases: two-hybrid library CCmax;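 further: natural log of median RNA to DNA barcode read ratio; higher means stronger binding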
[1] = target: T1, Core_NNNN-es_KEEE
T1 chain: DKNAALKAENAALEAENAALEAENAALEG

[2] = target: T2, 4H347-AA; conditions: mean of both orientations
T2 chain: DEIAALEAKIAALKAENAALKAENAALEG

[3] = target: T3, 4H2774-AA; conditions: mean of both orientations
T3 chain: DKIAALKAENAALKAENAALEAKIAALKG

[4] = target: T4, 4H2343-AA; conditions: mean of both orientations
T4 chain: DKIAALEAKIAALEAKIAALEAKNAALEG

[5] = target: T5, 4H2165-AA; conditions: mean of both orientations
T5 chain: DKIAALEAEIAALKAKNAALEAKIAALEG

[6] = target: T6, 4H2931-AA; conditions: mean of both orientations
T6 chain: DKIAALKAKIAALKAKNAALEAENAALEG

[7] = target: T7, 4H3073-AA; conditions: mean of both orientations
T7 chain: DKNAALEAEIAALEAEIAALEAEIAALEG

[8] = target: 4H_GCN4
Chain of 4H_GCN4 (chain, as listed by the source): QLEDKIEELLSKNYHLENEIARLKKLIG

[9] = target: T8, 4H406-AA; conditions: mean of both orientations
T8 chain: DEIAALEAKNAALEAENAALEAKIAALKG

[10] = target: T9, 4H2330-AA; conditions: mean of both orientations
T9 chain: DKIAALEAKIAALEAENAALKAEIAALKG

[11] = target: T10, 4H_BCR; conditions: mean of both orientations
T10 chain: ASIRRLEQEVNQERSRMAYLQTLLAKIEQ

[12] = target: GCN2_T; conditions: mean of both orientations
[13] = target: T11, 4H3438-AA; conditions: mean of both orientations
T11 chain: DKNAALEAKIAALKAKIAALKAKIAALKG

[14] = target: T12, 4H2124-AA
T12 chain: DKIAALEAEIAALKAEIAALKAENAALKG

[15] = target: T13, 4H2592-AA; conditions: mean of both orientations
T13 chain: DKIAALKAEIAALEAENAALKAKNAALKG

[16] = target: T14, 4H2466-AA; conditions: mean of both orientations
T14 chain: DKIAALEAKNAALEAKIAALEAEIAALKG

[17] = target: T15, 4H1828-AA; conditions: mean of both orientations
T15 chain: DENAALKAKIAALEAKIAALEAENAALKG

[18] = target: T16, 4H249-AA; conditions: mean of both orientations
T16 chain: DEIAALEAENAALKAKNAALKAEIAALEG

[19] = target: T17, 4H56-AA; conditions: mean of both orientations
T17 chain: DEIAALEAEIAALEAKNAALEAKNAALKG

[20] = target: T18, 4H2732-AA; conditions: mean of both orientations
T18 chain: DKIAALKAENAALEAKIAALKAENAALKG

[21] = target: T19, 4H3001-AA; conditions: mean of both orientations
T19 chain: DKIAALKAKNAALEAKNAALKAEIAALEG

[22] = target: T20, 4H_APH
T20 chain: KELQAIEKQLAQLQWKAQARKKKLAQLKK

[23] = target: T21, 4H3015-AA; conditions: mean of both orientations
T21 chain: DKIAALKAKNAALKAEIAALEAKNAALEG

[24] = target: T22, 4H2253-AA; conditions: mean of both orientations
T22 chain: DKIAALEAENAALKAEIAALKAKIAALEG

[25] = target: T23, 4H452-AA; conditions: mean of both orientations
T23 chain: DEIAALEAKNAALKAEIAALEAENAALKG

[26] = target: T24, 4H1930-AA; conditions: mean of both orientations
T24 chain: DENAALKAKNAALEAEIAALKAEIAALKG

[27] = target: T25, 4H1765-AA
T25 chain: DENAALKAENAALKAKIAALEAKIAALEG

[28] = target: T26, 4H1821-AA; conditions: mean of both orientations
T26 chain: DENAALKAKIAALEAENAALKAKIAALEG

[29] = target: T27, 4H2504-AA; conditions: mean of both orientations
T27 chain: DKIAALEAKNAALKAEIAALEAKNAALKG

[30] = target: T28, 4H2219-AA; conditions: mean of both orientations
T28 chain: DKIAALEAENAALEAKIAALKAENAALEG

[31] = target: T29, 4H3493-AA; conditions: mean of both orientations
T29 chain: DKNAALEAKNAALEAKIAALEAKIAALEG

[32] = target: T30, 4H3381-AA; conditions: mean of both orientations
T30 chain: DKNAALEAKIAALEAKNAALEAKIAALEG

[33] = target: T31, 4H963-AA; conditions: mean of both orientations
T31 chain: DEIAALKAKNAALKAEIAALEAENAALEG

[34] = target: T32, 4H688-AA
T32 chain: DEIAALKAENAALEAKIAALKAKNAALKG

[35] = target: T33, 4H3340-AA; conditions: mean of both orientations
T33 chain: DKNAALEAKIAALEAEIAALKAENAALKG

[36] = target: T34, 4H1639-AA
T34 chain: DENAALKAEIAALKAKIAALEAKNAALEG

[37] = target: T35, 4H1738-AA; conditions: mean of both orientations
T35 chain: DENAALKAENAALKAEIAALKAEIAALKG

[38] = target: T36, 4H2611-AA; conditions: mean of both orientations
T36 chain: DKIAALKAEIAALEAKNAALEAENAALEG

[39] = target: T37, 4H376-AA; conditions: mean of both orientations
T37 chain: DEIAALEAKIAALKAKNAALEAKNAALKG

Binder: DENAALEAKNAALKAKNAALKAKNAALKG [Core_NNNN-es_EKKK]
- interaction score ([1]; mean of both orientations): 1.14

Binder: DENAALKAENAALKAKIAALEAKIAALEG [4H1765-AA]
- interaction score [2]: -1.81
- interaction score [3]: -1.4
- interaction score [4]: -1.45
- interaction score [1]: -0.679
- interaction score [5]: -1.25
- interaction score [6]: -1.83
- interaction score [7]: -1.02
- interaction score [8]: -1.69
- interaction score [9]: -1.54
- interaction score [10]: -1.37
- interaction score [11]: -1.93
- interaction score [12]: -1.28
- interaction score [13]: -0.901
- interaction score [14]: -1.72
- interaction score [15]: -1.67
- interaction score [16]: -1.7
- interaction score [17]: -0.973
- interaction score [18]: -1.63
- interaction score [19]: -1.76
- interaction score [20]: -1.76
- interaction score [21]: -2.1
- interaction score [22]: -2.38
- interaction score [23]: -1.7
- interaction score [24]: -1.14
- interaction score [25]: -1.48
- interaction score [26]: -1.21
- interaction score [27]: 2.4
- interaction score [28]: -1.42

Binder: DENAALKAEIAALKAKIAALEAKNAALEG [4H1639-AA]
- interaction score [2]: -1.41
- interaction score [3]: -1.35
- interaction score [29]: -1.77
- interaction score [30]: -1.88
- interaction score [31]: -1.73
- interaction score [32]: -1.7
- interaction score [33]: -2.16
- interaction score [34]: -1.18
- interaction score [9]: -1.63
- interaction score [15]: -1.85
- interaction score [35]: -1.63
- interaction score [36]: 1.24
- interaction score [18]: -1.52
- interaction score [21]: -2.12
- interaction score [37]: -1.64
- interaction score [38]: -1.52
- interaction score [39]: -1.37

From PMC10397247
